Assay results taken from the supplement of paper PMC5998384.

How the values were obtained:
HeLa Kyoto [1] = assay: thermal stability score vs G1/S (z-score of summed log2 fold changes over temperatures); higher = more thermally stable than in G1/S
HeLa Kyoto [2] = assay: solubility change mitosis vs G1/S (difference of NP-40 vs SDS log2 ratios) (log2 ratio difference); higher = more soluble in mitosis
HeLa Kyoto [3] = assay: melting temperature (median over replicates), in situ; higher = more thermally stable
HeLa Kyoto [4] = assay: solubility in G1/S (NP-40 vs SDS abundance) (log2 ratio); higher = more soluble; conditions: cell cycle stage: G1/S
[5] = cell cycle stage: early G1 (4.5 h after nocodazole release)
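For melting temperature (median over replicates), in situ in this document: HeLa Kyoto cells synchronized by double thymidine or nocodazole block, proteins quantified by TMT10plex mass spectrometry, three independent biological replicates.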
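For solubility change mitosis vs G1/S (difference of NP-40 vs SDS log2 ratios) in this document: synchronized HeLa Kyoto cells (double thymidine block for G1/S, nocodazole release for mitosis), protein amounts in NP-40 versus SDS lysates quantified by mass spectrometry, three biological replicates.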
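For solubility in G1/S (NP-40 vs SDS abundance) in this document: HeLa Kyoto cells arrested at G1/S by double thymidine block, proteins quantified by TMT10plex mass spectrometry in mild NP-40 versus SDS extracts, three biological replicates.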
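For thermal stability score vs G1/S (z-score of summed log2 fold changes over temperatures) in this document: synchronized HeLa Kyoto cells, proteins quantified by TMT10plex mass spectrometry, three biological replicates, mitosis taken 0.5 h after nocodazole release, G1/S directly after double thymidine block.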

Chain of ACP2 (chain, as listed by the source): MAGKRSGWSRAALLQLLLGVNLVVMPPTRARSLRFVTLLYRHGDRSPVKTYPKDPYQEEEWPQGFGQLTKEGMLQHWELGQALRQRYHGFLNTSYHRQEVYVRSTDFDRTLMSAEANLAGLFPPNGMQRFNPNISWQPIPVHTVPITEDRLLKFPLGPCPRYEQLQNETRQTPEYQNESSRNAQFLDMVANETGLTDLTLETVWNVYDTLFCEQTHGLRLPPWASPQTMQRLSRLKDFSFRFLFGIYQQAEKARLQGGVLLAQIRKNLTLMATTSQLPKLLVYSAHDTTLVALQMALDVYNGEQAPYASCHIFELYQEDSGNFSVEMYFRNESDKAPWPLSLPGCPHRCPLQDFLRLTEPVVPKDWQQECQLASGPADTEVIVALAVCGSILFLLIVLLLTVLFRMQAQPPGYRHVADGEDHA

Substance | thermal stability score (HeLa Kyoto [1]; [5]) | thermal stability score (HeLa Kyoto [1]; cell cycle stage: mitosis) | solubility change mitosis (log2) (HeLa Kyoto [2]) | melting temperature (HeLa Kyoto [3]; cell cycle stage: G1/S) | melting temperature (HeLa Kyoto [3]; cell cycle stage: mitosis) | solubility in G1/S (log2) (HeLa Kyoto [4])
MGKVNVAKLRYMSRDDFRVLTAVEMGMKNHEIVPGSLIASIASLKHGGCNKVLRELVKHKLIAWERTKTVQGYRLTNAGYDYLALKTLSSRQVVESVGNQMGVGKESDIYIVANEEGQQFALKLHRLGRTSFRNLKNKRDYHKHRHNVSWLYLSRLSAMKEFAYMKALYERKFPVPKPIDYNRHAVVMELINGYPLCQIHHVEDPASVYDEAMELIVKLANHGLIHGDFNEFNLILDESDHITMIDFPQMVSTSHPNAEWYFDRDVKCIKDFFMKRFSYESELFPTFKDIRREDTLDVEVSASGYTKEMQADDELLHPLGPDDKNIETKEGSEFSFSDGEVAEKAEVYGSENESERNCLEESEGCYCRSSGDPEQIKEDSLSEESADARSFEMTEFNQALEEIKGQVVENNSVTEFSEEKNRTENYNRQDGQRVQGGVPAGSDEYEDECPHLIALSSLNREFRPFRDEENVGAMNQYRTRTLSITSSGSAVSCSTIPPELVKQKVKRQLTKQQKSAVRRRLQKGEANIFTKQRRENMQNIKSSLEAASFWGE [RIOK2] | -0.571 | -0.171 | -0.21 | 52.5 °C | 52 °C | -0.263
MAELDPFGAPAGAPGGPALGNGVAGAGEEDPAAAFLAQQESEIAGIENDEAFAILDGGAPGPQPHGEPPGGPDAVDGVMNGEYYQESNGPTDSYAAISQVDRLQSEPESIRKWREEQMERLEALDANSRKQEAEWKEKAIKELEEWYARQDEQLQKTKANNRVADEAFYKQPFADVIGYVTNINHPCYSLEQAAEEAFVNDIDESSPGTEWERVARLCDFNPKSSKQAKDVSRMRSVLISLKQAPLVH [CLTA] | -6.01 | -4.14 | 0.362 | 54.7 °C |  | 0.31
TOR1AIP1 | 1.27 | 1.41 | 0.144 | 54.4 °C | 54.9 °C | -0.0913
KIF21A | -1.01 | 0.181 | -0.0922 | 49.5 °C | 50.3 °C | -0.0549
MVFYFTSSSVNSSAYTIYMGKDKYENEDLIKHGWPEDIWFHVDKLSSAHVYLRLHKGENIEDIPKEVLMDCAHLVKANSIQGCKMNNVNVVYTPWSNLKKTADMDVGQIGFHRQKDVKIVTVEKKVNEILNRLEKTKVERFPDLAAEKECRDREERNEKKAQIQEMKKREKEEMKKKREMDELRSYSSLMKVENMSSNQDGNDSDEFM [CCDC25] | -0.0583 | -0.134 | -0.118 | 50.4 °C | 50.6 °C | 0.0307
MAERGYSFSLTTFSPSGKLVQIEYALAAVAGGAPSVGIKAANGVVLATEKKQKSILYDERSVHKVEPITKHIGLVYSGMGPDYRVLVHRARKLAQQYYLVYQEPIPTAQLVQRVASVMQEYTQSGGVRPFGVSLLICGWNEGRPYLFQSDPSGAYFAWKATAMGKNYVNGKTFLEKRYNEDLELEDAIHTAILTLKESFEGQMTEDNIEVGICNEAGFRRLTPTEVKDYLAAIA [PSMA2] | -1.52 | -1.53 | -0.045 | 58.3 °C | 60.8 °C | 0.391
MRAVLAREMDGRRVLGRFWSGWRRGLGVRPVPEDAGFGTEARHQRQPRGSCQRSGPLGDQPFAGLLPKNLSREELVDALRAAVVDRKGPLVTLNKPQGLPVTGKPGELTLFSVLPELSQSLGLREQELQVVRASGKESSGLVLLSSCPQTASRLQKYFTHARRAQRPTATYCAVTDGIPAASEGKIQAALKLEHIDGVNLTVPVKAPSRKDILEGVKKTLSHFRVVATGSGCALVQLQPLTVFSSQLQVHMVLQLCPVLGDHMYSARVGTVLGQRFLLPAENNKPQRQVLDEALLRRLHLTPSQAAQLPLHLHLHRLLLPGTRARDTPVELLAPLPPYFSRTLQCLGLRLQ [RPUSD3] | -1.94 | 0.774 | 0.0294 | 50.1 °C | 51.2 °C | 0.193
ACP2 | -1.34 | -0.755 | 0.018 | 56.1 °C | 57.2 °C | 0.434
MQDGNFLLSALQPEAGVCSLALPSDLQLDRRGAEGPEAERLRAARVQEQVRARLLQLGQQPRHNGAAEPEPEAETARGTSRGQYHTLQAGFSSRSQGLSGDKTSGFRPIAKPAYSPASWSSRSAVDLSCSRRLSSAHNGGSAFGAAGYGGAQPTPPMPTRPVSFHERGGVGSRADYDTLSLRSLRLGPGGLDDRYSLVSEQLEPAATSTYRAFAYERQASSSSSRAGGLDWPEATEVSPSRTIRAPAVRTLQRFQSSHRSRGVGGAVPGAVLEPVARAPSVRSLSLSLADSGHLPDVHGFNSYGSHRTLQRLSSGFDDIDLPSAVKYLMASDPNLQVLGAAYIQHKCYSDAAAKKQARSLQAVPRLVKLFNHANQEVQRHATGAMRNLIYDNADNKLALVEENGIFELLRTLREQDDELRKNVTGILWNLSSSDHLKDRLARDTLEQLTDLVLSPLSGAGGPPLIQQNASEAEIFYNATGFLRNLSSASQATRQKMRECHGLVDALVTSINHALDAGKCEDKSVENAVCVLRNLSYRLYDEMPPSALQRLEGRGRRDLAGAPPGEVVGCFTPQSRRLRELPLAADALTFAEVSKDPKGLEWLWSPQIVGLYNRLLQRCELNRHTTEAAAGALQNITAGDRRWAGVLSRLALEQERILNPLLDRVRTADHHQLRSLTGLIRNLSRNARNKDEMSTKVVSHLIEKLPGSVGEKSPPAEVLVNIIAVLNNLVVASPIAARDLLYFDGLRKLIFIKKKRDSPDSEKSSRAASSLLANLWQYNKLHRDFRAKGYRKEDFLGP [PKP3] | -0.69 | -0.255 | 0.099 | 50.1 °C | 48.3 °C | -0.223
MSLLQSALDFLAGPGSLGGASGRDQSDFVGQTVELGELRLRVRRVLAEGGFAFVYEAQDVGSGREYALKRLLSNEEEKNRAIIQEVCFMKKLSGHPNIVQFCSAASIGKEESDTGQAEFLLLTELCKGQLVEFLKKMESRGPLSCDTVLKIFYQTCRAVQHMHRQKPPIIHRDLKVENLLLSNQGTIKLCDFGSATTISHYPDYSWSAQRRALVEEEITRNTTPMYRTPEIIDLYSNFPIGEKQDIWALGCILYLLCFRQHPFEDGAKLRIVNGKYSIPPHDTQYTVFHSLIRAMLQVNPEERLSIAEVVHQLQEIAAARNVNPKSPITELLEQNGGYGSATLSRGPPPPVGPAGSGYSGGLALAEYDQPYGGFLDILRGGTERLFTNLKDTSSKVIQSVANYAKGDLDISYITSRIAVMSFPAEGVESALKNNIEDVRLFLDSKHPGHYAVYNLSPRTYRPSRFHNRVSECGWAARRAPHLHTLYNICRNMHAWLRQDHKNVCVVHCMDGRAASAVAVCSFLCFCRLFSTAEAAVYMFSMKRCPPGIWPSHKRYIEYMCDMVAEEPITPHSKPILVRAVVMTPVPLFSKQRSGCRPFCEVYVGDERVASTSQEYDKMRDFKIEDGKAVIPLGVTVQGDVLIVIYHARSTLGGRLQAKMASMKMFQIQFHTGFVPRNATTVKFAKYDLDACDIQEKYPDLFQVNLEVEVEPRDRPSREAPPWENSSMRGLNPKILFSSREEQQDILSKFGKPELPRQPGSTAQYDAGAGSPEAEPTDSDSPPSSSADASRFLHTLDWQEEKEAETGAENASSKESESALMEDRDESEVSDEGGSPISSEGQEPRADPEPPGLAAGLVQQDLVFEVETPAVLPEPVPQEDGVDLLGLHSEVGAGPAVPPQACKAPSSNTDLLSCLLGPPEAASQGPPEDLLSEDPLLLASPAPPLSVQSTPRGGPPAAADPFGPLLPSSGNNSQPCSNPDLFGEFLNSDSVTVPPSFPSAHSAPPPSCSADFLHLGDLPGEPSKMTASSSNPDLLGGWAAWTETAASAVAPTPATEGPLFSPGGQPAPCGSQASWTKSQNPDPFADLGDLSSGLQGSPAGFPPGGFIPKTATTPKGSSSWQTSRPPAQGASWPPQAKPPPKACTQPRPNYASNFSVIGAREERGVRAPSFAQKPKVSENDFEDLLSNQGFSSRSDKKGPKTIAEMRKQDLAKDTDPLKLKLLDWIEGKERNIRALLSTLHTVLWDGESRWTPVGMADLVAPEQVKKHYRRAVLAVHPDKAAGQPYEQHAKMIFMELNDAWSEFENQGSRPLF | 0.76 | 1.62 | -0.151 | 48.6 °C | 48.9 °C | -0.0682
MKFAEHLSAHITPEWRKQYIQYEAFKDMLYSAQDQAPSVEVTDEDTVKRYFAKFEEKFFQTCEKELAKINTFYSEKLAEAQRRFATLQNELQSSLDAQKESTGVTTLRQRRKPVFHLSHEERVQHRNIKDLKLAFSEFYLSLILLQNYQNLNFTGFRKILKKHDKILETSRGADWRVAHVEVAPFYTCKKINQLISETEAVVTNELEDGDRQKAMKRLRVPPLGAAQPAPAWTTFRVGLFCGIFIVLNITLVLAAVFKLETDRSIWPLIRIYRGGFLLIEFLFLLGINTYGWRQAGVNHVLIFELNPRSNLSHQHLFEIAGFLGILWCLSLLACFFAPISVIPTYVYPLALYGFMVFFLINPTKTFYYKSRFWLLKLLFRVFTAPFHKVGFADFWLADQLNSLSVILMDLEYMICFYSLELKWDESKGLLPNNSEESGICHKYTYGVRAIVQCIPAWLRFIQCLRRYRDTKRAFPHLVNAGKYSTTFFMVTFAALYSTHKERGHSDTMVFFYLWIVFYIISSCYTLIWDLKMDWGLFDKNAGENTFLREEIVYPQKAYYYCAIIEDVILRFAWTIQISITSTTLLPHSGDIIATVFAPLEVFRRFVWNFFRLENEHLNNCGEFRAVRDISVAPLNADDQTLLEQMMDQDDGVRNRQKNRSWKYNQSISLRRPRLASQSKARDTKVLIEDTDDEANT [XPR1] | -0.783 | -1.57 | -0.121 | 52.2 °C | 51.1 °C | -0.193
MSISSDEVNFLVYRYLQESGFSHSAFTFGIESHISQSNINGALVPPAALISIIQKGLQYVEAEVSINEDGTLFDGRPIESLSLIDAVMPDVVQTRQQAYRDKLAQQQAAAAAAAAAAASQQGSAKNGENTANGEENGAHTIANNHTDMMEVDGDVEIPPNKAVVLRGHESEVFICAWNPVSDLLASGSGDSTARIWNLSENSTSGSTQLVLRHCIREGGQDVPSNKDVTSLDWNSEGTLLATGSYDGFARIWTKDGNLASTLGQHKGPIFALKWNKKGNFILSAGVDKTTIIWDAHTGEAKQQFPFHSAPALDVDWQSNNTFASCSTDMCIHVCKLGQDRPIKTFQGHTNEVNAIKWDPTGNLLASCSDDMTLKIWSMKQDNCVHDLQAHNKEIYTIKWSPTGPGTNNPNANLMLASASFDSTVRLWDVDRGICIHTLTKHQEPVYSVAFSPDGRYLASGSFDKCVHIWNTQTGALVHSYRGTGGIFEVCWNAAGDKVGASASDGSVCVLDLRK [TBL1XR1] | -0.718 | 1.29 | -0.127 | 52.2 °C | 53.6 °C | -0.0567
MADKVLKEKRKLFIRSMGEGTINGLLDELLQTRVLNKEEMEKVKRENATVMDKTRALIDSVIPKGAQACQICITYICEEDSYLAGTLGLSADQTSGNYLNMQDSQGVLSSFPAPQAVQDNPAMPTSSGSEGNVKLCSLEEAQRIWKQKSAEIYPIMDKSSRTRLALIICNEEFDSIPRRTGAEVDITGMTMLLQNLGYSVDVKKNLTASDMTTELEAFAHRPEHKTSDSTFLVFMSHGIREGICGKKHSEQVPDILQLNAIFNMLNTKNCPSLKDKPKVIIIQACRGDSPGVVWFKDSVGVSGNLSLPTTEEFEDDAIKKAHIEKDFIAFCSSTPDNVSWRHPTMGSVFIGRLIEHMQEYACSCDVEEIFRKVRFSFEQPDGRAQMPTTERVTLTRCFYLFPGH [CASP1] | 0.996 | 1.73 | -0.0916 | 51.5 °C | 49.6 °C | 0.0768
